The source of these data is publication PMC4618444, “Evaluation and directed evolution for thermostability improvement of a GH 13 thermostable α-glucosidase from Thermus thermophilus TC11” (BMC Biotechnology, 2015).

Substrate in data set [1]: O=[N+]([O-])c1ccc(O[C@H]2O[C@H](CO)[C@@H](O)[C@H](O)[C@H]2O)cc1
In words: purified protein.

Substrate in data set [2]: OC[C@H]1O[C@@](CO)(O[C@H]2O[C@H](CO)[C@@H](O)[C@H](O)[C@H]2O)[C@@H](O)[C@@H]1O
In words: glucose release, glucose oxidase assay. The note with it: 90 °C, citric acid-sodium phosphate buffer pH 5.0. It is filed as biochemical, Thermus thermophilus.

Substrate in data set [3]: OC[C@H]1O[C@H](O[C@H]2O[C@H](CO)[C@@H](O)[C@H](O)[C@H]2O)[C@H](O)[C@@H](O)[C@@H]1O
In words: glucose release, glucose oxidase assay. It is filed as biochemical, Thermus thermophilus. The note with it: 90 °C, citric acid-sodium phosphate buffer pH 5.0.

Where [4] appears, read: optimal reaction conditions (90 °C, pH 5.0), substrate pNPG implied by context.
Where [5] appears, read: 90 °C, citric acid-sodium phosphate buffer pH 5.0.

B1: TtAG (Thermus thermophilus; Q10Y) (protein)
chain: MWWKEAVIYYVYPRSFQDTNGDGVADVEGVRRRLPYLKSLGVDAIWLSPFYKSPMKDFGYDLADYCDVDPIFGTLQDFDRLLEEAHALGLRVLVDLVPNHTSSEHPWFLESRASRNSPKRDWYIWKDPAPDGGPPNNWQSFFGGPAWTLDEATGQYYLHQFLPEQPDLNWRNPEVREALYEVMRFWLRRGVDGFRVDVLWLLAEDLLFKDEPGNPDWRPGMWDRGRHLHIFTEDQPETYAYVREMRQVLDEFSEPGRERVMVGEIYLPYPQLLRYYQAGCHLPFNFHLIFRGLPDWRPENLARIVEEYESLLTRWDWPNWVLGNHDQPRLASRLGEAQARVGAMLLFTLRGTPTWYYGDEIGMKNGEIPPEKVQDPAALRQKDRLGEHQLPPGRDPERTPMQWDDTPFAGFSTVEPWLPVNPDYKTRNVAAQENDPRSMLHLVRRLIALRKDPDLLYGAYRTYRAREGVYAYLRGEGWLVAINLTEKEKALELPRGGRVVLTTHLDREERVGERLLLRPDEGVVVRLD
One may read the Km as the substrate concentration at which the rate is half of its maximum. What is called kcat is the number of substrate molecules converted per active site and unit of time at saturation. With B1, in data set [1] (setting [4]), the Km was found to be 0.46 mM and the catalytic constant (kcat) turned out to be 356.57 s⁻¹.

B2: TtAG (Thermus thermophilus) (protein)
chain: MWWKEAVIYQVYPRSFQDTNGDGVADVEGVRRRLPYLKSLGVDAIWLSPFYKSPMKDFGYDLADYCDVDPIFGTLQDFDRLLEEAHALGLRVLVDLVPNHTSSEHPWFLESRASRNSPKRDWYIWKDPAPDGGPPNNWQSFFGGPAWTLDEATGQYYLHQFLPEQPDLNWRNPEVREALYEVMRFWLRRGVDGFRVDVLWLLAEDLLFKDEPGNPDWRPGMWDRGRHLHIFTEDQPETYAYVREMRQVLDEFSEPGRERVMVGEIYLPYPQLLRYYQAGCHLPFNFHLIFRGLPDWRPENLARIVEEYESLLTRWDWPNWVLGNHDQPRLASRLGEAQARVGAMLLFTLRGTPTWYYGDEIGMKNGEIPPEKVQDPAALRQKDRLGEHQLPPGRDPERTPMQWDDTPFAGFSTVEPWLPVNPDYKTRNVAAQENDPRSMLHLVRRLIALRKDPDLLYGAYRTYRAREGVYAYLRGEGWLVAINLTEKEKALELPRGGRVVLTTHLDREERVGERLLLRPDEGVVVRLD
notes: trimer by DLS (184 kDa)
In general, kcat/Km refers to the second-order rate constant that governs catalysis at low substrate concentration. For B2, in data set [1] (setting [5]), the Michaelis-Menten constant (Km) is 0.48 mM, the catalytic constant (kcat) was found to be 659 s⁻¹ and the kcat/Km amounted to 1.37e+06 M⁻¹ s⁻¹. In data set [2], the Km came out at 30.53 mM, the kcat was found to be 74.6 s⁻¹ and the kcat/Km turned out to be 2460 M⁻¹ s⁻¹. In data set [3], the Km was found to be 19.96 mM, the kcat was found to be 140 s⁻¹ and the kcat/Km was 7020 M⁻¹ s⁻¹.
